Measurements published in the supplement of paper PMC9732359.
± gives the uncertainty stated by the source.

Assay: protein stability index of a GFP-peptide fusion (yeast GPS) (PSI 1-4); higher = more stable; sorted into four equal gates, so the index is relative within each strain
Outline: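 Sequencing reads from sorted gates were used to score each peptide. The library consisted of tiled 17-residue yeast protein peptides fused downstream of GFP on a Cherry-expressing plasmid, pooled and carried in yeast. Mid-log cultures in leucine-free medium were split into four equal gates by GFP/Cherry ratio, and each gate's plasmids were PCR-amplified and Illumina-sequenced. The protein stability index adds up, over all gates, the read frequency multiplied by the gate number.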

Sequence	protein stability index (doa10∆)	protein stability index (pdr5∆)	protein stability index (san1∆)	protein stability index (ubr1∆)
SAYVKAFYQKGNKLVEL [SMC1]	1.45 ± 0.074	1.99 ± 0.051	2.12 ± 0.097	1.58 ± 0.052
SQSRSAKAGLTFPVGRV [HTA1]	2.8 ± 0.071	2.85 ± 0.08	2.92 ± 0.042	3.07 ± 0.035
ERLMISSDAFEVDVCDK [RET1]	2.31 ± 0.11	2.63 ± 0.05	2.04 ± 0.061	2.21 ± 0.061
SSVIQNYDIITASSLAH [YML103C/NUP188]	1.69 ± 0.079	1.88 ± 0.066	1.98 ± 0.092	2.03 ± 0.041
IILLGVLEDCRHLPMYT [ITC1]	1.37 ± 0.064	1.59 ± 0.054	2.44 ± 0.099	2.47 ± 0.067
LPRYQELTKEEAMYKLQ [SMC3]	3.02 ± 0.12	3.18 ± 0.087	3.43 ± 0.092	3.04 ± 0.073
FKIWHGEINKICMESLF [PCI8]	1.83 ± 0.1	1.46 ± 0.056	1.42 ± 0.1	1.87 ± 0.058
DPSRELNVIIDQLAVSP [YCS4]	2.79 ± 0.055	3.04 ± 0.062	2.72 ± 0.053	2.67 ± 0.05
EEAGEEEAKEEVTEEQA [RPS0A]	3.48 ± 0.12	3.5 ± 0.1	3.02 ± 0.13	3.64 ± 0.092
KVESQETLNDTIERSLI [YCS4]	2.73 ± 0.092	2.99 ± 0.071	2.96 ± 0.072	2.97 ± 0.057
EDETVKVAQLRQTGPAK [NSL1]	3.1 ± 0.16	2.83 ± 0.17	3.08 ± 0.19	3.67 ± 0.11
LGNDIPHDLIIGTADIF [BRR2]	2.6 ± 0.055	2.76 ± 0.068	2.84 ± 0.059	2.86 ± 0.047
NGNLEEEFAYVDPARRQ [MED6]	3.62 ± 0.21	3.44 ± 0.12	3.71 ± 0.1	2.74 ± 0.085
AKSNEDKQDGTAKPAFS [YJL041W/NSP1]	3.03 ± 0.23	3.44 ± 0.13	3.29 ± 0.17	2.96 ± 0.29
FRISLGLPVGAIMNCAD [RPL23A]	1.95 ± 0.045	1.9 ± 0.044	1.57 ± 0.057	1.7 ± 0.035
IQFGAKNMFEKKASKVT [ISW2]	2.66 ± 0.07	2.91 ± 0.072	2.68 ± 0.074	2.69 ± 0.11
AGCKIDNVDDIGEFNVS [YDL088C/ASM4]	3.25 ± 0.11	2.8 ± 0.097	2.94 ± 0.096	3.06 ± 0.14
VVPNEKADDDSVTIISA [ASC1]	2.98 ± 0.072	2.9 ± 0.082	3.05 ± 0.049	2.91 ± 0.076
NTEKDYKMVQEQLSKQR [SMC2]	3.27 ± 0.065	3.17 ± 0.072	3.25 ± 0.045	3.23 ± 0.043
REKNSLESGKETALEFL [SMC4]	3.47 ± 0.17	3.17 ± 0.11	3.07 ± 0.086	3.63 ± 0.093
KKCPFTGLVSIRGKILT [RPS11A]	1.7 ± 0.058	1.53 ± 0.06	1.47 ± 0.12	1.88 ± 0.055
NIDSSAQFTFGKAATAK [YOR098C/NUP1]	3.12 ± 0.099	3.07 ± 0.14	3.22 ± 0.13	3.1 ± 0.072
DEGHVLKLENLHVVSKS [SIN4]	3.14 ± 0.11	2.65 ± 0.16	2.73 ± 0.19	3.02 ± 0.13
DELSSKELVECHLYSQR [NNF1]	2.05 ± 0.056	2.33 ± 0.052	2.13 ± 0.094	2 ± 0.04
DTKLRLEKSKNECQRLQ [YIL149C/MLP2]	2.57 ± 0.055	2.85 ± 0.059	2.54 ± 0.056	2.87 ± 0.04
ANVPSTATTGKRKPAKS [RPN4]	2.64 ± 0.073	2.88 ± 0.082	2.64 ± 0.05	2.8 ± 0.05
